We go through two substances from patent publication US20160220669A1.

Some results are limits rather than exact numbers.

What all share (experiment): cell-based or functional assay
The target in assay [1] is human wildtype CSF-1R (full-length) (human) (UniProt P07333).
In assay [2] the target is CSF-1R of cynomolgous monocytes (cynomolgous).
Assay [3] deals with human mutant CSF-1R L301S Y969F (human) (UniProt P07333).

With “Anti CSF-1R SC 2-4A5 (Santa Cruz Biotechnology, US) (antibody)”, in assay [1], the % inhibition 10 µg/ml antibody concentration (BeWo cells, CSF-1 induced growth) is 39%; the wtCSF-1R IC30 (cell viability, CellTiterGlo, 3D culture) worked out at 16.6 µg/mL; the wtCSF-1R IC50 (cell viability, CellTiterGlo, 3D culture) came to 10 µg/mL. This substance displayed a % survival (cynomolgous monocytes with huCSF-1, 5 µg/ml antibody) in assay [2] of 31%. In assay [3], this substance registered a Mutant CSF-1R IC30 (cell viability, CellTiterGlo, 3D culture) of 2.56 µg/mL and a Mutant CSF-1R IC50 (cell viability, CellTiterGlo, 3D culture) of 10 µg/mL.
Consider “goat polyclonal anti-CSF-1R antibody ab10676 (abcam)”, for which the wtCSF-1R IC30 (cell viability, CellTiterGlo, 3D culture) in assay [1] stood at 14.2 µg/mL. In addition, the Mutant CSF-1R IC30 (cell viability, CellTiterGlo, 3D culture) in assay [3] is > 20 µg/mL.
